Experimental data taken from patent US20260265360A1, “USE OF ANTI-FAM19A5 ANTAGONISTS FOR TREATING HEARING DISORDERS” (NEURACLE SCIENCE CO., LTD., priority 2023, published 2026).

Test system: inner hair cells of mouse cochlear explants
Assay: Promotion of synaptogenesis (CtBP2 puncta)
Assay type: cell-based
Conditions: antibody 1 μM
Procedure: Cochlear explant were cultured in medium consisting of plating media, which consist of Neurobasal media (Invitrogen), 1% N2 supplement, and 10 μg/mL Ampicillin with culture media with additional 1% FBS.
Postnatal day 4-5 (P4-5) C57BL/6 mice were sacrificed for inner ear dissection. Mouse head was bisected, and brain tissue was removed. Cochlea was carefully separated the from the extraneous bones in ice-cold HBSS (5 mM HEPES/1.3 mM CaCl2), 0.9 mM MgCl2, pH 7.4) or External solution (1.2 mM CaCl2), 1 mM MgCl2, 5 mM HEPES in HBSS). Then the stria vascularis and spiral bone plate was removed, and cochlea was cut into two to three sections. […]
Mouse cochlear explant cultures were treated with FAM19A5, FAM19A5 combined with a FAM19A5 antagonist (e.g., described herein, e.g., 1-30 antibody), or a FAM19A5 antagonist (e.g., described herein, e.g., 1-30 antibody) alone at 1 DIV to determine the level of synaptogenesis at 2 DIV by immunostaining CtBP2, a ribbon synapse marker. To quantify the number of CtBP2 puncta of individual inner hair cells, z-stack confocal images were exported in “multi-page” and the number of CtBP2 puncta from each individual inner hair cells were measured using ROI manger and multi-point tool from Fiji (Image J). Number of CtBP2 puncta from five individual inner hair cells were counted per image and 3 z-stack images were measured from each treatment group. […]

B1: 1-30: anti-FAM19A5 antibody, de-immunized variant of 3-2; VH SEQ ID NO: 235, VL SEQ ID NO: 240 (antibody, V domains shown)
VH: AVTLDESGGGLQTPGGALRLSCKASGFDFESFNMFWVRQAPGKGLEYVSQISSSEEDENYAPAVKGRATISRDNGQSTLYLQMNSLRAEDTGTYYCAKSSYDCPYGHCSSGVDSAGEIDAWGHGTEVIVSS
VL: ALTQPSSVSANPGETVKITCSGGGSEEEQYYYGWYQQKPGSAPVTLIYQDEERPSDIPSRFSGSTSGSTATLTITGVQAGDEADYYCGSWDSEDEDHFGAGTTLTVL
modifications: Low-PI VH, 1-30 VH, 1-17 VH, 1-32 VH, 4-11 VH, 6-10 VH; 1-30 VL
number of CtBP2 puncta within the inner hair cells vs control human IgG: significant increase
